Data reported in paper PMC4827060.

Key:
Assay in all cases: SPR; IgG amine-coupled to CM5 chip (Biacore 3000); GST-ABD or GST at 54, 108, 216 and 432 nM, 10 μl/min for 7 min; 25 °C; PBS running buffer; 1:1 Langmuir model
[1] = target: Mouse IgG (mouse)
[2] = target: Rabbit IgG (rabbit)
[3] = target: Rat IgG (rat)

GST-ABD (recombinant secondary antibody mimic; glutathione-S-transferase fused through a linker to the antibody-binding domain of protein A) (domain or fragment)
Ka [1]: 5.9e+07 M⁻¹
Kd [1]: 16.8 nM
koff [1]: 0.00107 s⁻¹
kon [1]: 63800 M⁻¹ s⁻¹
Ka [2]: 7.6e+08 M⁻¹
Kd [2]: 1.31 nM
koff [2]: 9e-05 s⁻¹
kon [2]: 66600 M⁻¹ s⁻¹
Ka [3]: 2.3e+08 M⁻¹
Kd [3]: 4.34 nM
koff [3]: 0.00022 s⁻¹
kon [3]: 51800 M⁻¹ s⁻¹
